# Assay results published in publication PMC9687980.
# Target: human Fc fusion angiotensin-converting enzyme 2 (hACE2-Fc) (human) (UniProt Q9BYF1)
# Experiment: BLI
# Sequence of human Fc fusion angiotensin-converting enzyme 2 (hACE2-Fc) (human) (Q9BYF1 18-740): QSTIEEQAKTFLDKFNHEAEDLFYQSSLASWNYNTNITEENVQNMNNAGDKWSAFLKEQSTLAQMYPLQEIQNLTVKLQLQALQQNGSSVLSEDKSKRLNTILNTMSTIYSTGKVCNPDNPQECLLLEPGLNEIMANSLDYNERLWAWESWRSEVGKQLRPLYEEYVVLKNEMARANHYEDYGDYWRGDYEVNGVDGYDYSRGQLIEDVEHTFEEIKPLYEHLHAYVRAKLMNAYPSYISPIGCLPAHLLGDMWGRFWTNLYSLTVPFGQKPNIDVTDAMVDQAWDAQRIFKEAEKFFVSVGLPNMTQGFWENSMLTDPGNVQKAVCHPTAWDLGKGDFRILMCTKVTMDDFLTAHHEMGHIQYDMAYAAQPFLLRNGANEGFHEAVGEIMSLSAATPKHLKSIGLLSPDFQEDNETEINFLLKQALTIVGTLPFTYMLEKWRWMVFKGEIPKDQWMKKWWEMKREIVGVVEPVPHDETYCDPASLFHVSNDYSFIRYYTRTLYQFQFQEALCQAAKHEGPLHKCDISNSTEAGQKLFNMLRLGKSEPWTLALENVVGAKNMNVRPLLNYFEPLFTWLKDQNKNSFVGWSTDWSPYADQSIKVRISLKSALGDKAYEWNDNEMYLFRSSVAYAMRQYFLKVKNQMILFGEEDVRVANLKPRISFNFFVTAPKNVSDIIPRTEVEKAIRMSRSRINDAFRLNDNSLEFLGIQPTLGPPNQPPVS
Substance,Kd,koff,kon
MBP-fused spike receptor binding domain of SARS-CoV-2 Omicron BA.1 (MBP-RBDomi) (domain or fragment),10.1 nM,0.00174 s⁻¹,172000 M⁻¹ s⁻¹
spike RBD of SARS-CoV-2 Omicron expressed in a mammalian system (domain or fragment),7.16 nM,0.00161 s⁻¹,226000 M⁻¹ s⁻¹
